# From PMC8006170
# B1: PbgS(wt) (Acinetobacter baumannii ATCC 19606 = CIP 70.34 = JCM 6841) (protein)
# chain: MGLQYSSRLTVMEYPPTYPSVIPNIEIVMTYTFNRPAFPATRMRRIRKNDQLRAMVSETQLTTNHLIYPVFVLPGQNQTQDIPSMPNIQRLSADLLLKKAERLLELGVSKLALFPVTPQEDKSLTAEAAWREDGLVQTTCRLLKKELPEMVLITDGALDPYTTHGQDGIIDETGYVLNDETVECLIKQALSHAEAGAEVIAPSDMMDGRIGAIRQALEANGHIYTNIMAYSAKYASSFYGPFRDAVGSASNLKGGNKYNYQMDFANRAEALHEIALDIQEGADMVIVKPGMPYLDVVREVKDTFGIPTFIYQVSGEYAMLAGAIQNGWLSDSVILESLMCCRRAGADGIWTYFAETAAEKLKEMN
# Substrate: NCC(=O)CCC(=O)O
# Assay: PbgS activity assay in lysate of overexpressing cells, Michaelis-Menten
# Type: biochemical, Acinetobacter baumannii
# Details: native wt lysate included as control to subtract basal activity
protein,measurement,value
B1,Km,153 µM
